Consider one protein from patent US20220315967A1, “METHODS FOR PRODUCING D-TRYPTOPHAN AND SUBSTITUTED D-TRYPTOPHANS” (priority 2019, published 2022).

The target in data set [1] is T1, IvoA(C^0) mutant (H1428A).
T1 chain: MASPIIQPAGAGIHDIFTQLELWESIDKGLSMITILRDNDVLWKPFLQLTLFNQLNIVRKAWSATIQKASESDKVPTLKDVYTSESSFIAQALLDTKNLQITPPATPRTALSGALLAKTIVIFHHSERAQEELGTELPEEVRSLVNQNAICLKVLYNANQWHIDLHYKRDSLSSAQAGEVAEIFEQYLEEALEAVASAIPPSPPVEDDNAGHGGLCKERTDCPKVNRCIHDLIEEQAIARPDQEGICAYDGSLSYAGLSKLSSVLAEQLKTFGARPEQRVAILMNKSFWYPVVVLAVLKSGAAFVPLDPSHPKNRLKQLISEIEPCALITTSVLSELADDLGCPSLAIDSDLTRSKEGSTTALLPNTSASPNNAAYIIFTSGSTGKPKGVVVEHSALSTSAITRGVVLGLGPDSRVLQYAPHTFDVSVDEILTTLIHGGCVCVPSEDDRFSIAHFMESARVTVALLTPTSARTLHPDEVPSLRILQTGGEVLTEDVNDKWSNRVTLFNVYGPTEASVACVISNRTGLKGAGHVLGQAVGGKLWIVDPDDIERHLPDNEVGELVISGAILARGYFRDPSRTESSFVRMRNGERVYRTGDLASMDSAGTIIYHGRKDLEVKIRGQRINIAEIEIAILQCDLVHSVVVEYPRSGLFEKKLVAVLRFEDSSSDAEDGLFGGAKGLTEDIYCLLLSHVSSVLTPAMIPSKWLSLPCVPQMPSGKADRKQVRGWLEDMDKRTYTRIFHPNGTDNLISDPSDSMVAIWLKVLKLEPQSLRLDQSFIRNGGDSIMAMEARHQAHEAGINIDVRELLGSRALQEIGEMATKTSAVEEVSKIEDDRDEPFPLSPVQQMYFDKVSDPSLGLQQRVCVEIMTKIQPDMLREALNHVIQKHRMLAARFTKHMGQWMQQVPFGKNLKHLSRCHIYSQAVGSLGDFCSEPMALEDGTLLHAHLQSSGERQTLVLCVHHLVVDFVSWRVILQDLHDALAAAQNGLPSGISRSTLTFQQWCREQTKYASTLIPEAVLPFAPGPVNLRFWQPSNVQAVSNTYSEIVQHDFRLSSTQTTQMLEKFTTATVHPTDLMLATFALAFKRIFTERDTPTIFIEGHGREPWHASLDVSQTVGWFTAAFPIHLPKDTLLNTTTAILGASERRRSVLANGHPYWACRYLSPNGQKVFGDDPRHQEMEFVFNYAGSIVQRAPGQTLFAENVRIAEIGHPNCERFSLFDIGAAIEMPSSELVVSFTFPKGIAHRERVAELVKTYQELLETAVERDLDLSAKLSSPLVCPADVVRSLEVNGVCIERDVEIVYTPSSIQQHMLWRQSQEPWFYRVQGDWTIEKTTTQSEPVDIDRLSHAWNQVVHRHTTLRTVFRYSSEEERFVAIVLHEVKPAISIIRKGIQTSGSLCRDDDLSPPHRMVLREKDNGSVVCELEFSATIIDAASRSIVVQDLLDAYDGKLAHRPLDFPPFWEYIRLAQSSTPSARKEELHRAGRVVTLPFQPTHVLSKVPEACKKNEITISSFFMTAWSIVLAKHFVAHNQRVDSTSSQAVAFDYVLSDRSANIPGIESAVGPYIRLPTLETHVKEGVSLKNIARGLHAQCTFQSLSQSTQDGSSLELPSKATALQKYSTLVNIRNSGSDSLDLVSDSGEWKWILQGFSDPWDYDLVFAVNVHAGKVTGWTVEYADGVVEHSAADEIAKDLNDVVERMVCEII

Data set [2] concerns the target T2, IvoA-ΔC truncation mutant.
T2 chain: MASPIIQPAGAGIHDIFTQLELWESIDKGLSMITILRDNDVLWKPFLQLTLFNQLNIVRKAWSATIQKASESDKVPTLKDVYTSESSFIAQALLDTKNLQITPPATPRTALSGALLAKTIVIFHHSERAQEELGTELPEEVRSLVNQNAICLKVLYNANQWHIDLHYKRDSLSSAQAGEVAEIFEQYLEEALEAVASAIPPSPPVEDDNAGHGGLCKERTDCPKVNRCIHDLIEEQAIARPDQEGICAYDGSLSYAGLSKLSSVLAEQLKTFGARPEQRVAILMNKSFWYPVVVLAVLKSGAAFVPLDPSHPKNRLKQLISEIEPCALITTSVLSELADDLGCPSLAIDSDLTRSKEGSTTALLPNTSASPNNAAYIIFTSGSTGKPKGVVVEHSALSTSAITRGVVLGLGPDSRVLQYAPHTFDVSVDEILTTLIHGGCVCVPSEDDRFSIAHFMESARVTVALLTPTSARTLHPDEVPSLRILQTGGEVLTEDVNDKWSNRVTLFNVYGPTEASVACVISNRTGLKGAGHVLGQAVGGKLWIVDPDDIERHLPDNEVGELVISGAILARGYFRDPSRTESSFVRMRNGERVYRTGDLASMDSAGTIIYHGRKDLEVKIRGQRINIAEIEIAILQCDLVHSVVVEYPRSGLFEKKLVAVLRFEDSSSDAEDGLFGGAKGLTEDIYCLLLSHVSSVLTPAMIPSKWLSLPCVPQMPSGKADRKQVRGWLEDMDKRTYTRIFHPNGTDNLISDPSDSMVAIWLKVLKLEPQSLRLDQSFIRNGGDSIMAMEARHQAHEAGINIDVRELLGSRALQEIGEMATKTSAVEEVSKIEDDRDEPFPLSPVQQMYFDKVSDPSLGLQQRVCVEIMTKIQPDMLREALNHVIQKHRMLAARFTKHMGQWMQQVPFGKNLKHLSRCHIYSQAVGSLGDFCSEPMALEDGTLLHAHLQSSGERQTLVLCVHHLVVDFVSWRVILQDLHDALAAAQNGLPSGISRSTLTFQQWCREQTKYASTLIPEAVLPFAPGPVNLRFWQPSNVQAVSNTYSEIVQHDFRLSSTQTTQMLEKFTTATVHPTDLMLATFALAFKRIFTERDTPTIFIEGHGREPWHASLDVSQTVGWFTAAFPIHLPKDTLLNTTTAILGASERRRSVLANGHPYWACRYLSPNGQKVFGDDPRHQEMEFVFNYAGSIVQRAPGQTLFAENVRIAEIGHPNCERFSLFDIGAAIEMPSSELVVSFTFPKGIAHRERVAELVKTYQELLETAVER

B1: standalone IvoA-C (condensation (C) domain of Aspergillus nidulans single-module NRPS IvoA) (protein)
chain: DLDLSAKLSSPLVCPADVVRSLEVNGVCIERDVEIVYTPSSIQQHMLWRQSQEPWFYRVQGDWTIEKTTTQSEPVDIDRLSHAWNQVVHRHTTLRTVFRYSSEEERFVAIVLHEVKPAISIIRKGIQTSGSLCRDDDLSPPHRMVLREKDNGSVVCELEFSHTIIDAASRSIVVQDLLDAYDGKLAHRPLDFPPFWEYIRLAQSSTPSARKEELHRAGRVVTLPFQPTHVLSKVPEACKKNEITISSFFMTAWSIVLAKHFVAHNQRVDSTSSQAVAFDYVLSDRSANIPGIESAVGPYIRLPTLETHVKEGVSLKNIARGLHAQCTFQSLSQSTQDGSSLELPSKATALQKYSTLVNIRNSGSDSLDLVSDSGEWKWILQGFSDPWDYDLVFAVNVHAGKVTGWTVEYADGVVEHSAADEIAKDLNDVVERMVCEII
B1: the “stereoinversion activity (complementation in trans)” value in data set [1] and in data set [2] was “Addition of IvoA-C in equimolar to either IvoA(C^0) mutant or IvoA-ΔC truncation mutant successfully rescued the impaired stereoinversion activity” in each case.
